These results are taken from PMC12478413 (bioRxiv, 2025).

The target of test [1] is recombinant GCase E326K+R329A double mutant (human). Kind of test: SEC.
Test [2] deals with recombinant human LIMP2 lumenal domain (residues 36-430) (human) (UniProt Q14108). In words: SEC-MALS.
Test [3] has as its target recombinant GCase E326K variant (human GBA1 residues A40-Q536) (human). Kind of test: dynamic light scattering.
The target is the same in test [4]. In words: SEC.
In test [5] the target is recombinant human LIMP2 lumenal domain (residues 36-430) (human) (UniProt Q14108). Kind of test: SPR.
Test [6] has the same target. Kind of test: SPR. This is another data set of the same source.
In test [7] the target is T1, recombinant WT GCase (glucocerebrosidase, human GBA1 residues A40-Q536) (human, UniProt P04062 40-536).
T1 sequence (looked up): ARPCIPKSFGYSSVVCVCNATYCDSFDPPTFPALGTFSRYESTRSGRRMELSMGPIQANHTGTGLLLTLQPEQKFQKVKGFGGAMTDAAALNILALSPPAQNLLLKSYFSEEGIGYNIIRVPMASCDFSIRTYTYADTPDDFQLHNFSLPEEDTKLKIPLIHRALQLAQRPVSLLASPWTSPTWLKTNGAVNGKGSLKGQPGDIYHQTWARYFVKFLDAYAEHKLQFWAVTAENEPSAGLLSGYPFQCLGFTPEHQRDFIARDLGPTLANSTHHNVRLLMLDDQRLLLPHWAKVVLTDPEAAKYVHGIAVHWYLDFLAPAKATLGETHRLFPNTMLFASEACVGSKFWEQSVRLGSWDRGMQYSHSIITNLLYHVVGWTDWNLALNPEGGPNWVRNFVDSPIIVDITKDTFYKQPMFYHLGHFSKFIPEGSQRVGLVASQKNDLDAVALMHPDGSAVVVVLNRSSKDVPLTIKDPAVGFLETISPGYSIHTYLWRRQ
Kind of test: SPR.

For test [8], the target named is T1, recombinant WT GCase …. Kind of test: SPR. This is another data set of the same source.

Read-outs that look alike come from different tables or passages of the source.

As to “recombinant GCase E326K+R329A double mutant (enzyme)”, the stoichiometry N in test [1] turned out to be 2.
For “recombinant GCase E326K variant (human GBA1 residues A40-Q536) (enzyme)”, the stoichiometry N (GCase E326K : LIMP2 (2:2)) in test [2] was determined as 1. The stoichiometry N in test [3] and in test [4] was 2 in each case. The Kd in test [5] turned out to be 2.44 nM; in test [6], 3.89 nM.

B1: recombinant human LIMP2 lumenal domain (residues 36-430) (domain or fragment, UniProt Q14108 36-430, looked up)
chain: SIEKKIVLRNGTEAFDSWEKPPLPVYTQFYFFNVTNPEEILRGETPRVEEVGPYTYRELRNKANIQFGDNGTTISAVSNKAYVFERDQSVGDPKIDLIRTLNIPVLTVIEWSQVHFLREIIEAMLKAYQQKLFVTHTVDELLWGYKDEILSLIHVFRPDISPYFGLFYEKNGTNDGDYVFLTGEDSYLNFTKIVEWNGKTSLDWWITDKCNMINGTDGDSFHPLITKDEVLYVFPSDFCRSVYITFSDYESVQGLPAFRYKVPAEILANTSDNAGFCIPEGNCLGSGVLNVSICKNGAPIIMSFPHFYQADERFVSAIEGMHPNQEDHETFVDINPLTGIILKAAKRFQINIYVKKLDDFVETGDIRTMVFPVMYLNESVHIDKETASRLKSMIN
modifications: biotin on the Avitag (BirA, for SPR)
For the molecule B1, the Kd in test [7] is 19.9 nM; in test [8], 14.4 nM.
